From PMC3493473

What was measured:
[1] = biological target: full length ROP18 (ROP18-FL), recombinant (Toxoplasma gondii (type I RH strain))
[2] = biological target: T1, ROP18-kinase domain (ROP18-KD) (Toxoplasma gondii) (UniProt Q2PAY2)
T1 sequence: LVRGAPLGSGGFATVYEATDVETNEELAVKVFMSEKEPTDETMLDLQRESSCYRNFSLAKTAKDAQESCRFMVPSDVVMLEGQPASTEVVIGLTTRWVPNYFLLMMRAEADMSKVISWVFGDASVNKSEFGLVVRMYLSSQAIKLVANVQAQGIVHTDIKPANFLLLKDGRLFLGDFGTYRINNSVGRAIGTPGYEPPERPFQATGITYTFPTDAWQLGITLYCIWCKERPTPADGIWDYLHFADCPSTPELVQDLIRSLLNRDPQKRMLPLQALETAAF

“recombinant ROP5 (rROP5) (from UniProt F2YGR7 25-549) (natural protein)” was tested, and the in vitro 32P kinase activity of ROP18-FL (25 ng) on immunoprecipitated Irgb6 with against without rROP5 (50 ng), fold increase (Figure 5F) [1] was 12 fold and the in vitro 32P kinase activity of ROP18-KD (100 ng) on dMBP with against without rROP5 (200 ng), fold increase (Figure 5E) [2] was 12 fold.
